According to patent US5039791A, “Peptide fragments of tissue plasminogen activator” (Monsanto Company, priority 1989, dated 1991):
Entries after “also recorded” stand apart in the source; their conditions may differ. Where no end group is shown, it is not given here.

How the values were obtained:
PAI-1 = molecular target: T1, PAI-1 (Homo sapiens, UniProt P05121); test: PAI-1 inhibition studies: protection of tPA from inactivation by PAI-1, residual tPA enzymatic activity by indirect amidolytic assay; assay type: biochemical; settings: 1.5 μg/ml PAI-1, 50 ng/ml tPA; for maintenance of tPA activity in the presence of PAI-1 (FIG. 1): 100 μg/ml peptide, one hour at 37° C.; for effect of peptide concentration on the maintenance of tPA activity in the presence of PAI-1 (FIG. 2): several peptide concentrations (30-120 μg/ml)
T1 construct: purchased American Diagnostica, Inc
Protocol: In each case, peptide and PAI-1 were first mixed, followed by the addition of tPA. Final concentrations were: 100 μg/ml peptide, 1.5 μg/ml PAI-1 and 50 ng/ml tPA in phospate buffered saline containing 0.01% sodium azide and 0.01% Tween 80%. After incubation for one hour at 37° C., samples were examined for remaining tPA enzymatic activity. The error bars represent the range of duplicate measurements of the tPA enzymatic activity in μAU/min/min.
Results are expressed as the percentage of tPA enzymatic activity remaining after incubation with tPA, PAI-1 and peptide relative to that seen with tPA alone.
An indirect amidolytic assay for tPA activity was performed by a conventional method as described by Ranby and Wallen, Prog. Fibrinolytics 5, 233-235 (1981) and Ranby, Biochim. Biophys. Acta 740, 461-469 (1982) but with the following modifications. The assay mixture contained 50 μg/ml human glu-plasminogen, 1 mM plasmin substrate S-2251, 130 μg/ml fibrinogen fragment stimulator, and 0 to 20 ng/ml tPA sample in phosphate-buffered saline containing 0.01% sodium azide and 0.01% Tween 80 (PBSAT) in a final volume of 100 μl. The assay was performed in a 96-well microtitration plate at room temperature. Reaction mixtures were overlaid with 50 μl mineral oil to prevent evaporation. Periodic readings were taken at 405 nm and referenced at 650 nm using a Molecular Devices Vmax plate reader. The first derivative of absorbance with respect to time was calculated and the slope of a plot of dA/dt vs time was proportional to tPA activity. Results were expressed in absorbance units (μ AU/min^2) or as a percentage of control.
The effect of peptides on the inactivation of tPA by PAI-1 was measured by incubating 1.5 μg/ml PAI-1, 30-120 μg/ml peptide and 50 ng/ml tPA in PBSAT. PAI-1 and peptide were first mixed, followed by the addition of tPA. After one hour at 37° C., residual tPA enzymatic activity was measured either immediately or after the samples had been frozen and stored.
tPA was incubated with increasing concentrations of PAI-1 for one hour at 37° C. and the incubate was then assayed for residual tPA enzymatic activity.

[1] = tested on: human umbilical vein endothelial cells; test: Endothelial cell binding assay: binding of [125I]-tPA to endothelial cells; settings: for inhibition of binding of tPA to endothelial cells (FIG. 3): 15 μg/ml peptide, about 20 ng/ml [125I]-tPA, 4° C., 90 minutes; for dose response of inhibition of binding of tPA to endothelial cells (FIG. 4): several peptide concentrations
Protocol: Peptides from FIG. 1 were examined for their ability to inhibit the binding of [^125 I]-tPA to human umbilical vein endothelial cells. Assays were performed as described under Materials and Methods, below, using a final peptide concentration of 15 μg/ml. All samples were assayed in duplicate. Bar height represents the result obtained for one duplicate point and the corresponding error bar represents the result obtained for the other. Results are shown in percent inhibition of binding.
Assays examining the binding of [^125 I]-tPA to endothelial cells were performed by a conventional method essentially as described by Hajjar et al., J. Clin. Invest. 80, 1712-1719 (1987), and Beebe, Thromb. Res. 46, 241-254 (1987). Briefly, cells were grown to confluence in 24-well dishes using MCDB107 growth medium supplemented with 180 μg/ml heparin, 30 μg/ml ECGS, 100 μg/ml gentamicin and 10% fetal bovine serum. Immediately prior to assay, plates were chilled to 4° C. and all wells were aspirated. Cells were washed 3 times with binding buffer (PBS, pH 7.2, 5.0 mg/ml BSA, 10 mM glucose, 0.01% Tween 80). Five hundred μl of buffer containing approximately 20 ng/ml of [^125 I]-tPA and a test sample of peptide was then added. Incubations proceeded at 4° C. for 90 minutes. At the end of the incubation time, cells were washed rapidly 4 times with 500 μl aliquots of binding buffer. Cells were separated from the plates using 3% sodium dodecylsulfate (SDS) and the amount of radioactivity present was determined. Nonspecific binding was determined by carrying out incubations in the presence of an excess (2.0 μg/ml) of unlabeled tPA.
The peptides shown in Table 1 were examined for their effect on the binding of tPA to cultured human umbilical vein endothelial cells. […] All points were run in duplicate and nonspecific binding was subtracted in each case.

T1 sequence (P05121 24-402): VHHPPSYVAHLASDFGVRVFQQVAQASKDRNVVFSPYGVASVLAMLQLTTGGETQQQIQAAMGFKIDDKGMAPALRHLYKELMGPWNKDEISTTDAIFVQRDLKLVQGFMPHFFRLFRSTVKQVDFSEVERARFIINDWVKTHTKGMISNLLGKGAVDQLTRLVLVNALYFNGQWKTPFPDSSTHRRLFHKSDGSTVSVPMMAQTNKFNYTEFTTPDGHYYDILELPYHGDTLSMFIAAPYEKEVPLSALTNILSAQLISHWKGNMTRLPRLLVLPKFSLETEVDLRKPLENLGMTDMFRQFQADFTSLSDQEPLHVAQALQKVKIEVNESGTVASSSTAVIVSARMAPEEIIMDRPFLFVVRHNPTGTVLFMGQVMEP

maintenance of tPA activity in the presence of PAI-1 (FIG. 1) (PAI-1)	effect of peptide concentration on the maintenance of tPA activity in the presence of PAI-1 (FIG. 2) (PAI-1)	Substance	inhibition of binding of tPA to endothelial cells (FIG. 3) [1]	dose response of inhibition of binding of tPA to endothelial cells (FIG. 4) [1]
no effect	no effect	LGKHNYCRNPDGDAKPWCHVLKNRR-amide (LGKHNYCRNPDGDAKPWCHVLKNRR-NH2; cysteine pairing not given here) [Peptide 166, 25 amino acid synthetic peptide amide fragment of native human tPA]	effective at inhibiting the binding of tPA to cells	
active but with a lesser effect	steady, progressive increase in activity	NPDRDSKPWCYVFKAGKYSSEFCST-amide (NPDRDSKPWCYVFKAGKYSSEFCST-NH2; cysteine pairing not given here) [Peptide 158, 25 amino acid synthetic peptide amide fragment of native human tPA]	inhibited the binding of tPA to endothelial cells; also recorded: more effective at inhibiting endothelial cell binding relative to the other active peptides	concentration dependent manner

Substance	maintenance of tPA activity in the presence of PAI-1 (FIG. 1) (PAI-1)	effect of peptide concentration on the maintenance of tPA activity in the presence of PAI-1 (FIG. 2) (PAI-1)	inhibition of binding of tPA to endothelial cells (FIG. 3) [1]	dose response of inhibition of binding of tPA to endothelial cells (FIG. 4) [1]
VPVKSCSEPRCFNGGTCQQALYFSD-amide (VPVKSCSEPRCFNGGTCQQALYFSD-NH2; cysteine pairing not given here) [Peptide 148, 25 amino acid synthetic peptide amide fragment of native human tPA]	especially effective at maintaining tPA activity	rose dramatically and plateaued	inhibited the binding of tPA to endothelial cells	concentration dependent manner
